Measured values reported in patent publication US20190194280A1.

Legend:
[1] = biological target: Serum samples collected at week 16 from patients immunized with UBI AD vaccine (UB-311); experiment: comp. ELISA, serum P101
[2] = biological target: Serum samples collected at week 16 from patients immunized with UBI AD vaccine (UB-311); experiment: comp. ELISA, serum P102
[3] = biological target: Serum samples collected at week 16 from patients immunized with UBI AD vaccine (UB-311); experiment: comp. ELISA, serum P103
[4] = biological target: Serum samples collected at week 16 from patients immunized with UBI AD vaccine (UB-311); experiment: comp. ELISA, serum P104
[5] = biological target: Serum samples collected at week 16 from patients immunized with UBI AD vaccine (UB-311); experiment: comp. ELISA, serum P105
[6] = biological target: Serum samples collected at week 16 from patients immunized with UBI AD vaccine (UB-311); experiment: comp. ELISA, serum P106
[7] = biological target: Serum samples collected at week 16 from patients immunized with UBI AD vaccine (UB-311); experiment: comp. ELISA, serum P107
[8] = biological target: Serum samples collected at week 16 from patients immunized with UBI AD vaccine (UB-311); experiment: comp. ELISA, serum P108
[9] = biological target: Serum samples collected at week 16 from patients immunized with UBI AD vaccine (UB-311); experiment: comp. ELISA, serum P109
[10] = biological target: Serum samples collected at week 16 from patients immunized with UBI AD vaccine (UB-311); experiment: comp. ELISA, serum P201
[11] = biological target: Serum samples collected at week 16 from patients immunized with UBI AD vaccine (UB-311); experiment: comp. ELISA, serum P202
[12] = biological target: Serum samples collected at week 16 from patients immunized with UBI AD vaccine (UB-311); experiment: comp. ELISA, serum P203
[13] = biological target: Serum samples collected at week 16 from patients immunized with UBI AD vaccine (UB-311); experiment: comp. ELISA, serum P204
[14] = biological target: Serum samples collected at week 16 from patients immunized with UBI AD vaccine (UB-311); experiment: comp. ELISA, serum P205
[15] = biological target: Serum samples collected at week 16 from patients immunized with UBI AD vaccine (UB-311); experiment: comp. ELISA, serum P206
[16] = biological target: Serum samples collected at week 16 from patients immunized with UBI AD vaccine (UB-311); experiment: comp. ELISA, serum P207
[17] = biological target: Serum samples collected at week 16 from patients immunized with UBI AD vaccine (UB-311); experiment: comp. ELISA, serum P208
[18] = biological target: Serum samples collected at week 16 from patients immunized with UBI AD vaccine (UB-311); experiment: comp. ELISA, serum P209
[19] = biological target: Serum samples collected at week 16 from patients immunized with UBI AD vaccine (UB-311); experiment: comp. ELISA, serum P210
[20] = biological target: Immune sera of baboons immunized with UBI AD vaccine; experiment: competitive inhibition ELISA

RHDSGYEVHH [Aβ5-14 or APP 770 (R676-H685)]
IC50-based peak height [1]: 0 | IC50-based peak height [2]: 0 | IC50-based peak height [3]: 0 | IC50-based peak height [4]: 0 | IC50-based peak height [5]: 0 | IC50-based peak height [6]: 0 | IC50-based peak height [7]: 0 | IC50-based peak height [8]: 0 | IC50-based peak height [9]: 0 | IC50-based peak height [10]: 0 | IC50-based peak height [11]: 0 | IC50-based peak height [12]: 0 | IC50-based peak height [13]: 0 | IC50-based peak height [14]: 0 | IC50-based peak height [15]: 0 | IC50-based peak height [16]: 0 | IC50-based peak height [17]: 0 | IC50-based peak height [18]: 0 | IC50-based peak height [19]: 0

ISEVKMDAEF [Aβ-6-4 or APP 770 (I666-F675)]
IC50-based peak height [1]: 0 | IC50-based peak height [2]: 0 | IC50-based peak height [3]: 0 | IC50-based peak height [4]: 0 | IC50-based peak height [5]: 0 | IC50-based peak height [6]: 0 | IC50-based peak height [7]: 0 | IC50-based peak height [8]: 0 | IC50-based peak height [9]: 0 | IC50-based peak height [10]: 0 | IC50-based peak height [11]: 0 | IC50-based peak height [12]: 0 | IC50-based peak height [13]: 0 | IC50-based peak height [14]: 0 | IC50-based peak height [15]: 0 | IC50-based peak height [16]: 0 | IC50-based peak height [17]: 0 | IC50-based peak height [18]: 0 | IC50-based peak height [19]: 0

EVKMDAEFRH [Aβ-4-6 or APP 770 (E668-H677)]
IC50-based peak height [1]: 1 | IC50-based peak height [2]: 0 | IC50-based peak height [3]: 0 | IC50-based peak height [4]: 0 | IC50-based peak height [5]: 0 | IC50-based peak height [6]: 0 | IC50-based peak height [7]: 0 | IC50-based peak height [8]: 0 | IC50-based peak height [9]: 0 | IC50-based peak height [10]: 58 | IC50-based peak height [11]: 0 | IC50-based peak height [12]: 0 | IC50-based peak height [13]: 0 | IC50-based peak height [14]: 0 | IC50-based peak height [15]: 0 | IC50-based peak height [16]: 1 | IC50-based peak height [17]: 0 | IC50-based peak height [18]: 0 | IC50-based peak height [19]: 0

EISEVKMDAE [Aβ-7-3 or APP 770 (E665-E674)]
IC50-based peak height [1]: 0 | IC50-based peak height [2]: 0 | IC50-based peak height [3]: 0 | IC50-based peak height [4]: 0 | IC50-based peak height [5]: 0 | IC50-based peak height [6]: 0 | IC50-based peak height [7]: 0 | IC50-based peak height [8]: 0 | IC50-based peak height [9]: 0 | IC50-based peak height [10]: 0 | IC50-based peak height [11]: 0 | IC50-based peak height [12]: 0 | IC50-based peak height [13]: 0 | IC50-based peak height [14]: 0 | IC50-based peak height [15]: 0 | IC50-based peak height [16]: 0 | IC50-based peak height [17]: 0 | IC50-based peak height [18]: 0 | IC50-based peak height [19]: 0

VKMDAEFRHD [Aβ-3-7 or APP 770 (V669-D678)]
IC50-based peak height [1]: 31 | IC50-based peak height [2]: 0 | IC50-based peak height [3]: 0 | IC50-based peak height [4]: 0 | IC50-based peak height [5]: 0 | IC50-based peak height [6]: 0 | IC50-based peak height [7]: 0 | IC50-based peak height [8]: 0 | IC50-based peak height [9]: 0 | IC50-based peak height [10]: 0 | IC50-based peak height [11]: 0 | IC50-based peak height [12]: 0 | IC50-based peak height [13]: 1 | IC50-based peak height [14]: 0 | IC50-based peak height [15]: 0 | IC50-based peak height [16]: 0 | IC50-based peak height [17]: 0 | IC50-based peak height [18]: 0 | IC50-based peak height [19]: 13

TEEISEVKMD [Aβ-9-1 or APP 770 (T663-D672)]
IC50-based peak height [1]: 0 | IC50-based peak height [2]: 0 | IC50-based peak height [3]: 0 | IC50-based peak height [4]: 0 | IC50-based peak height [5]: 0 | IC50-based peak height [6]: 0 | IC50-based peak height [7]: 0 | IC50-based peak height [8]: 0 | IC50-based peak height [9]: 0 | IC50-based peak height [10]: 0 | IC50-based peak height [11]: 0 | IC50-based peak height [12]: 0 | IC50-based peak height [13]: 0 | IC50-based peak height [14]: 0 | IC50-based peak height [15]: 0 | IC50-based peak height [16]: 0 | IC50-based peak height [17]: 0 | IC50-based peak height [18]: 0 | IC50-based peak height [19]: 0

EEISEVKMDA [Aβ-8-2 or APP 770 (E664-A673)]
IC50-based peak height [1]: 0 | IC50-based peak height [2]: 0 | IC50-based peak height [3]: 0 | IC50-based peak height [4]: 0 | IC50-based peak height [5]: 0 | IC50-based peak height [6]: 0 | IC50-based peak height [7]: 0 | IC50-based peak height [8]: 0 | IC50-based peak height [9]: 0 | IC50-based peak height [10]: 0 | IC50-based peak height [11]: 0 | IC50-based peak height [12]: 0 | IC50-based peak height [13]: 0 | IC50-based peak height [14]: 0 | IC50-based peak height [15]: 0 | IC50-based peak height [16]: 0 | IC50-based peak height [17]: 0 | IC50-based peak height [18]: 0 | IC50-based peak height [19]: 0

LVFFAEDVGSNKGAIIGLMVGGVVIA [Aβ17-42 (Aβ or APP 770 (L688-A713))]
% inhibition at 0 µg/mL [20]: 0% | % inhibition at 0.25 µg/mL [20]: 5% | % inhibition at 0.5 µg/mL [20]: 9% | % inhibition at 1 µg/mL [20]: 10% | % inhibition at 2 µg/mL [20]: 5% | % inhibition at 8 µg/mL [20]: 0% | % inhibition at 32 µg/mL [20]: 7%

HDSGYEVHHQ [Aβ6-15 or APP 770 (H677-Q686)]
IC50-based peak height [1]: 0 | IC50-based peak height [2]: 0 | IC50-based peak height [3]: 0 | IC50-based peak height [4]: 0 | IC50-based peak height [5]: 0 | IC50-based peak height [6]: 0 | IC50-based peak height [7]: 0 | IC50-based peak height [8]: 0 | IC50-based peak height [9]: 0 | IC50-based peak height [10]: 0 | IC50-based peak height [11]: 0 | IC50-based peak height [12]: 0 | IC50-based peak height [13]: 0 | IC50-based peak height [14]: 0 | IC50-based peak height [15]: 0 | IC50-based peak height [16]: 0 | IC50-based peak height [17]: 0 | IC50-based peak height [18]: 0 | IC50-based peak height [19]: 0

DSGYEVHHQK [Aβ7-16 or APP 770 (D678-K687)]
IC50-based peak height [1]: 214 | IC50-based peak height [2]: 0 | IC50-based peak height [3]: 0 | IC50-based peak height [4]: 0 | IC50-based peak height [5]: 0 | IC50-based peak height [6]: 0 | IC50-based peak height [7]: 0 | IC50-based peak height [8]: 0 | IC50-based peak height [9]: 0 | IC50-based peak height [10]: 0 | IC50-based peak height [11]: 0 | IC50-based peak height [12]: 0 | IC50-based peak height [13]: 0 | IC50-based peak height [14]: 0 | IC50-based peak height [15]: 0 | IC50-based peak height [16]: 0 | IC50-based peak height [17]: 0 | IC50-based peak height [18]: 0 | IC50-based peak height [19]: 0

SGYEVHHQKL [Aβ8-17 or APP 770 (S679-L688)]
IC50-based peak height [1]: 0 | IC50-based peak height [2]: 0 | IC50-based peak height [3]: 0 | IC50-based peak height [4]: 0 | IC50-based peak height [5]: 0 | IC50-based peak height [6]: 0 | IC50-based peak height [7]: 0 | IC50-based peak height [8]: 0 | IC50-based peak height [9]: 0 | IC50-based peak height [10]: 0 | IC50-based peak height [11]: 0 | IC50-based peak height [12]: 0 | IC50-based peak height [13]: 0 | IC50-based peak height [14]: 0 | IC50-based peak height [15]: 0 | IC50-based peak height [16]: 0 | IC50-based peak height [17]: 0 | IC50-based peak height [18]: 0 | IC50-based peak height [19]: 0

SEVKMDAEFR [Aβ-5-5 or APP 770 (S667-R676)]
IC50-based peak height [1]: 10 | IC50-based peak height [2]: 0 | IC50-based peak height [3]: 0 | IC50-based peak height [4]: 0 | IC50-based peak height [5]: 0 | IC50-based peak height [6]: 0 | IC50-based peak height [7]: 0 | IC50-based peak height [8]: 0 | IC50-based peak height [9]: 0 | IC50-based peak height [10]: 0 | IC50-based peak height [11]: 0 | IC50-based peak height [12]: 0 | IC50-based peak height [13]: 0 | IC50-based peak height [14]: 0 | IC50-based peak height [15]: 0 | IC50-based peak height [16]: 0 | IC50-based peak height [17]: 0 | IC50-based peak height [18]: 0 | IC50-based peak height [19]: 0
